This is an account of results in patent publication US20170037110A1 (IMMATICS BIOTECHNOLOGIES, published 2017).

Where only a bound is given, the exact number is not on record here.

This test has as its target T1, HLA-A*02:01 (human).
T1 construct: monomers captured on streptavidin plates; also called MHC class I
Description: UV peptide exchange ELISA. In short, it runs like this:
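Peptide-MHC complexes formed by UV-triggered exchange of a cleavable peptide for the test peptide, with stabilised complexes indicating binding. Exchange products diluted 100 fold onto streptavidin-coated wells, 1h at 37° C.; HRP anti-β2m (2 μg/ml), TMB, absorbance at 450 nm gives exchange yield.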
In turn, GLFDGVPTTA returned a peptide exchange yield of 50 to 75%. On to ALLQEGEVYSA, for which the peptide exchange yield was 50 to 75%. For SIANFSEFYV, the peptide exchange yield is no less than 75%. Regarding LLLDEEGTFSL, the peptide exchange yield fell in the range of 20 to 50%. The same measure for ALPVSLPQI: 50 to 75%; for YLQDVVEQA: 50 to 75%; for VLADIELAQA: 50 to 75%. Molecule KMFEFVEPLL yielded a peptide exchange yield of no less than 75%. The same measure for SLQEQLHSV: 50 to 75%; for VLFDDELLMV: 50 to 75%.

Molecule SQYSGQLHEV gave a peptide exchange yield of 50 to 75%. RMIEYFIDV registered a peptide exchange yield of 50 to 75%. As to VLDELDMEL, the peptide exchange yield was 20 to 50%. ALWGGTQPLL showed a peptide exchange yield of 20 to 50%.

In turn, FLYDEIEAEV showed a peptide exchange yield of 50 to 75%. For VLLDDIFAQL, the peptide exchange yield was in the range of 50 to 75%. As to YLVYILNEL, the peptide exchange yield lay within 20 to 50%. Molecule YLVAKLVEV registered a peptide exchange yield of 20 to 50%. KITDTLIHL registered a peptide exchange yield of 50 to 75%.

Take GLFEDVTQPGILL: the peptide exchange yield is no less than 75%.

Molecule AILPQLFMV yielded a peptide exchange yield of no less than 75%. On to YLLETSGNL, for which the peptide exchange yield was in the range of 50 to 75%. Take ALVNVQIPL: the peptide exchange yield fell in the range of 50 to 75%. For LLADVVPTT, the peptide exchange yield was 50 to 75%. GLINTGVLSV displayed a peptide exchange yield of 20 to 50%. The molecule ALIAEGIALV returned a peptide exchange yield of 50 to 75%. The same measure for ILRESTEEL: 50 to 75%. The same measure for FLVEDLVDSL: 50 to 75%. The same measure for ALLGQTFSL: 50 to 75%; for IISDLTIAL: 50 to 75%. ALYIGDGYVIHLA returned a peptide exchange yield of 50 to 75%. Under FMVDNEAIYDI stands no less than 75%. The same measure for NLFQSVREV: 20 to 50%. In the case of SLLFSLFEA, the peptide exchange yield is 20 to 50%. With MTLGQIYYL, the peptide exchange yield is 50 to 75%. Take FLVDTPLARA: the peptide exchange yield is no less than 75%. The same measure for LVYPLELYPA: 50 to 75%; for GLAPFTEGISFV: 50 to 75%; for FIMPATVADATAV: 50 to 75%.

In the case of SLEPQIQPV, the peptide exchange yield is 20 to 50%. In turn, VMITKLVEV came in with a peptide exchange yield of 50 to 75%.

SLAALVVHV came in with a peptide exchange yield of 50 to 75%. In turn, LLWGDLIWL had a peptide exchange yield of 50 to 75%. The molecule ILLERLWYV had a peptide exchange yield of 50 to 75%. VLLEIEDLQV: the peptide exchange yield was no less than 75%. For LLVSNLDFGV, the peptide exchange yield lay within 50 to 75%. QLLDVVLTI registered a peptide exchange yield of 20 to 50%.

As for ALGNTVPAV, the peptide exchange yield lay within 50 to 75%. In turn, TLMTSLPAL gave a peptide exchange yield of 50 to 75%. Under FLNEFFLNV stands 50 to 75%; under FLPEALDFV, 50 to 75%. For YLFPGIPEL, the peptide exchange yield is 50 to 75%. On to IMEENPGIFAV, for which the peptide exchange yield fell in the range of 50 to 75%.

ALNDQVFEI displayed a peptide exchange yield of 50 to 75%. Regarding QLLHVGVTV, the peptide exchange yield fell in the range of 50 to 75%.

With FMEGAIIYV, the peptide exchange yield was 50 to 75%.

For ALQDFLLSV, the peptide exchange yield lay in the range of 50 to 75%. NLINEINGV showed a peptide exchange yield of 50 to 75%.

The molecule ILLSQTTGV yielded a peptide exchange yield of 50 to 75%. As for ALFTFSPLTV, the peptide exchange yield was 50 to 75%. Regarding LLFGGTKTV, the peptide exchange yield is 20 to 50%. The molecule VLDRESPNV yielded a peptide exchange yield of 50 to 75%.

FLVTLNNVEV yielded a peptide exchange yield of no less than 75%. With RLYTGMHTV, the peptide exchange yield lay in the range of 50 to 75%.

Regarding RVLEVGALQAV, the peptide exchange yield lay within 20 to 50%. Molecule VLPDPEVLEAV returned a peptide exchange yield of 50 to 75%. As to LLPPLESLATV, the peptide exchange yield lay within 20 to 50%.
